The text below walks through data of PMC3338484.

For the data set, the system named is T1, Nc1nc2c(c(=O)[nH]1)N1CN(c3ccc(C(=O)NC(CCC(=O)O)C(=O)O)cc3)CC1CN2.
T1 construct: hexa-histidine tag with TEV protease site (N, cleaved yes); made in house; host or cells: E. coli BL21 (DE3)
The data set is described as follows: FolD enzyme assay (absorbance at 350 nm), IC50 determination. The class given is biochemical, Pseudomonas aeruginosa. As to conditions: other: 1 nM PaFolD, end-point assay; other substrate saturating; mean ± SD (n = 4); pH 7.9. The procedure: Enzyme activity was assayed by measuring the absorbance at 350 nm of the intermediate product in the reaction, N ^5,N ^10-methenyl-THF, following acidification of the reaction and consequent reconversion of the final product formyl-THF to the intermediate. Following optimization of the assay buffer and determination of the enzyme linearity, assays were carried out at room temperature in a 50 µL reaction volume containing 25 mM bicine, pH 7.9, 1 mM dithiothreitol, 0.05% CHAPS, 0.2 mg mL^−1 BSA, 1 nM recombinant FolD, […] NADP^+ and 35 µM N ^5,N ^10-methylene-THF. Michaelis constants for the two substrates (NADP^+ and N ^5,N ^10-methylene-THF) were determined in an end-point assay, using these buffer and enzyme conditions.
The HTS was performed with a compound collection of 79,029 diverse structures based around 4000 chemical scaffolds. All compounds were dissolved in 100% DMSO to a concentration of 3 mM. Single point inhibition assays were carried out at room temperature in clear, flat bottom, polystyrene, 384-well plates (Matrix). Each assay was performed in a 50 µL reaction volume as described above. […] The FolD assay was run at room temperature for 20 min and the signal was allowed to develop for 10 min before the absorbance of each well was read at 350 nm using an EnVision multilabel plate reader (PerkinElmer Life Sciences). […]

A word on the Km: it is the substrate concentration at which the rate is half of its maximum. Turning to PaFolD (Pseudomonas aeruginosa PAO1), the Km turned out to be 26 ± 4 µM.
